{
  "source": "patent US20040048311A1",
  "key": {"38C13 IgM [1]": {"biological_target": "38C13 IgM", "assay": "antibody microarray on FAST slide, purified 38C13 IgM, detection with goat anti-mouse IgM HRP, chemiluminescence"}, "38C13 IgM [2]": {"biological_target": "38C13 IgM", "assay": "antibody microarray on FAST slide, 38C13 cell extract at 1:2000 dilution, detection with goat anti-mouse IgM HRP, chemiluminescence"}},
  "data": [
    {"substance": "S1C5 anti-idiotype monoclonal antibody", "values": [
      {"measurement": "lowest IgM concentration giving signal", "setting": "38C13 IgM [1]", "result": 0.1, "unit": "µg/mL"},
      {"measurement": "lowest spotted S1C5 concentration giving signal", "setting": "38C13 IgM [1]", "result": 25, "unit": "µg/mL"},
      {"measurement": "lowest printed S1C5 concentration giving signal", "setting": "38C13 IgM [2]", "result": 50, "unit": "µg/mL"}
    ]}
  ]
}
